B1: hLL2-IgG1-Tap18Hr1 (antibody)
heavy: not shown
light: DIQLTQSPSSLSASVGDRVTMSCKSSQSVLYSANHKNYLAWYQQKPGKAPKLLIYWASTRESGVPSRFSGSGSGTDFTFTISSLQPEDIATYYCHQYLSSWTFGGGTKLEIKRTVAAPSVFIFPPSDEQLKSGTASVVCLLNNFYPREAKVQWKVDNALQSGNSQESVTEQDSKDSTYSLSSTLTLSKADYEKHKVYACEVTHQGLSSPVTKSFNRGEC
modifications: Tap18Hr1 linker-drug on cysteine thiols of the partially reduced antibody (light chain with 0 or 1 drug); sites not stated; Tap18Hr1 linker-drug (monomethyl dolastatin 10) on cysteine thiols of the partially reduced antibody, conventional conjugation, DAR 2.7-3.5; sites not stated
notes: also called Anti-hLL2-IgG1-Tap18Hr1; Anti-CD22 (hLL2)-IgG1-Tap18Hr1
B2: hLL2-S442C-IgG4p-Tap18Hr1 (antibody, name in EU numbering)
heavy: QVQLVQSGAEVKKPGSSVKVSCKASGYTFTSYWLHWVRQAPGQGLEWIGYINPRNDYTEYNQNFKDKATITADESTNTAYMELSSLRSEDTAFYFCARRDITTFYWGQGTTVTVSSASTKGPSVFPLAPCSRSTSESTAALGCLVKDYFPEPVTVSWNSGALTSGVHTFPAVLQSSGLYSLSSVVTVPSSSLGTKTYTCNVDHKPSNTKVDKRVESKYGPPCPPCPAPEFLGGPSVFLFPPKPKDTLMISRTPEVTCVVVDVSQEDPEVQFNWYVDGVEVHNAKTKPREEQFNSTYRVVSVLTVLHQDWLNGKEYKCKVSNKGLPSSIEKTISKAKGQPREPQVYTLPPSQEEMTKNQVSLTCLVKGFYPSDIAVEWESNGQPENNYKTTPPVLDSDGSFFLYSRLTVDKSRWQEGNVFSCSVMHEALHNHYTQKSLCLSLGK
light: B1 light
modifications: Tap18Hr1 linker-drug (monomethyl dolastatin 10) on the introduced Cys 442 (EU numbering); site-specific conjugation, DAR 1.58-2.01
notes: also called hLL2-S442C-IgG4p Tap18Hr1 conjugate
B3: hLL2-T169C-IgG4p-Tap18Hr1 (antibody, name in EU numbering)
heavy: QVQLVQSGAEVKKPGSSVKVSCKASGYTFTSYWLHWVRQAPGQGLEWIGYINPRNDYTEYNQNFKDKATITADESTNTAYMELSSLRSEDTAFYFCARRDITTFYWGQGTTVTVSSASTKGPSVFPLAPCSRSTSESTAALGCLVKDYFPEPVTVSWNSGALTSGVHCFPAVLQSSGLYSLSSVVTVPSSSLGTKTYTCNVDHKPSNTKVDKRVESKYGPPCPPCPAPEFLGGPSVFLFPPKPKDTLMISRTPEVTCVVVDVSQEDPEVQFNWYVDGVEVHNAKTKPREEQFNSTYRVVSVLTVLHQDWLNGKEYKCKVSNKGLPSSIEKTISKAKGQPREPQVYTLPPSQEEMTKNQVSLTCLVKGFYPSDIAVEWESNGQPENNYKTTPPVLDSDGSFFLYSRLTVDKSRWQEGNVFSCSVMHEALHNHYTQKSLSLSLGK
light: B1 light
modifications: Tap18Hr1 linker-drug (monomethyl dolastatin 10) on the introduced Cys 169 (EU numbering); site-specific conjugation, DAR 1.58-2.01
notes: also called hLL2-T169C-IgG4p Tap18Hr1 conjugate
B4: hLL2-T155C-IgG4p-Tap18Hr1 (antibody, name in EU numbering)
heavy: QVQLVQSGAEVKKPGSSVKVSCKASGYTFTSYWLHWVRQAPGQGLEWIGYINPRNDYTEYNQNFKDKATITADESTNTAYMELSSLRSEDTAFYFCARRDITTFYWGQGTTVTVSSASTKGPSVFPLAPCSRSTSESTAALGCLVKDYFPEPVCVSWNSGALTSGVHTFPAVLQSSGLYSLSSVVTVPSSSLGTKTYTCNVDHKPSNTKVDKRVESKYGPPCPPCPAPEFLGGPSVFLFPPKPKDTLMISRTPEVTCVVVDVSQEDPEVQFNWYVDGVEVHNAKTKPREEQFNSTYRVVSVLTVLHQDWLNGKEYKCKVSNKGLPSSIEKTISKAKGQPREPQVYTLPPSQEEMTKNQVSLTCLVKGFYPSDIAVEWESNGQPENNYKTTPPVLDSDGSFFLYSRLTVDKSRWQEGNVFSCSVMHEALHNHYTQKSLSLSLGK
light: B1 light
modifications: Tap18Hr1 linker-drug (monomethyl dolastatin 10) on the introduced Cys 155 (EU numbering); site-specific conjugation, DAR 1.58-2.01
notes: also called hLL2-T155C-IgG4p Tap18Hr1 conjugate
B5: hLL2-S442C-IgG1-Tap18Hr1 (antibody)
heavy: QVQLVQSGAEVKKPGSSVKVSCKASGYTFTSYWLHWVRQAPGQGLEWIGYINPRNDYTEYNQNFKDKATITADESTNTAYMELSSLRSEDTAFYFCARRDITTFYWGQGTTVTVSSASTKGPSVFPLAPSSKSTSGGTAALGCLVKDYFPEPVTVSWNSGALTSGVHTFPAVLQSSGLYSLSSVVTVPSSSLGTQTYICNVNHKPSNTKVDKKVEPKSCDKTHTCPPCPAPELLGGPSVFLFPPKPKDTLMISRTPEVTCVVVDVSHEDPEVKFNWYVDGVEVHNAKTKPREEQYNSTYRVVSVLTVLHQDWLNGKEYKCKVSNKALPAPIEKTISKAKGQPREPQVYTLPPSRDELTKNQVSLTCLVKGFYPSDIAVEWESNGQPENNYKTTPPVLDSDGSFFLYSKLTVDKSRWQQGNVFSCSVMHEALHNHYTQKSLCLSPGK
light: B1 light
modifications: Tap18Hr1 linker-drug (monomethyl dolastatin 10) on the introduced Cys 442 (EU numbering); site-specific conjugation, DAR 1.58-2.01
notes: also called hLL2-S442C-IgG1 Tap18Hr1 conjugate
B6: hLL2-S157C-IgG1-Tap18Hr1 (antibody)
heavy: not shown
light: B1 light
modifications: Tap18Hr1 linker-drug (monomethyl dolastatin 10) on the introduced Cys 157 (EU numbering); site-specific conjugation, DAR 1.58-2.01
notes: also called hLL2-S157C-IgG1 Tap18Hr1 conjugate
B7: hLL2-S165C-IgG1-Tap18Hr1 (antibody)
heavy: not shown
light: B1 light
modifications: Tap18Hr1 linker-drug (monomethyl dolastatin 10) on the introduced Cys 165 (EU numbering); site-specific conjugation, DAR 1.58-2.01
notes: also called hLL2-S165C-IgG1 Tap18Hr1 conjugate
B8: hLL2-T169C-IgG1-Tap18Hr1 (antibody)
heavy: not shown
light: B1 light
modifications: Tap18Hr1 linker-drug (monomethyl dolastatin 10) on the introduced Cys 169 (EU numbering); site-specific conjugation, DAR 1.58-2.01
notes: also called hLL2-T169C-IgG1 Tap18Hr1 conjugate
B9: hLL2-T155C-IgG1-Tap18Hr1 (antibody)
heavy: not shown
light: B1 light
modifications: Tap18Hr1 linker-drug (monomethyl dolastatin 10) on the introduced Cys 155 (EU numbering); site-specific conjugation, DAR 1.58-2.01
notes: also called hLL2-T155C-IgG1 Tap18Hr1 conjugate
B10: hLL2-IgG1 (antibody)
heavy: not shown
light: B1 light
notes: also called hLL2-IgG1 Ab; hLL2-wild type antibody
B11: hLL2-IgG4p (antibody)
heavy: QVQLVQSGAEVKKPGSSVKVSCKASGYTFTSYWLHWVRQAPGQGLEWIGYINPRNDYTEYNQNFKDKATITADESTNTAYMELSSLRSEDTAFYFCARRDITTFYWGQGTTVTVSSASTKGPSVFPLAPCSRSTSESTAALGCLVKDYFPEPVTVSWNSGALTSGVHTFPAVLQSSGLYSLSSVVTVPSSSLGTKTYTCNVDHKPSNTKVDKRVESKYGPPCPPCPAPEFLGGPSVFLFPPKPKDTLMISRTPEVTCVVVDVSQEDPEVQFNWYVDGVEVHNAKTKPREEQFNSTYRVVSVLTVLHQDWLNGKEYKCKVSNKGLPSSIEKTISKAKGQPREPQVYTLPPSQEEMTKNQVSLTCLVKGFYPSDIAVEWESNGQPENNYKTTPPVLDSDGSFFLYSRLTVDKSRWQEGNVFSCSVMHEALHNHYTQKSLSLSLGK
light: B1 light
notes: also called hLL2-IgG4p Ab
B12: hLL2-T169C-IgG4p (antibody, name in EU numbering)
heavy: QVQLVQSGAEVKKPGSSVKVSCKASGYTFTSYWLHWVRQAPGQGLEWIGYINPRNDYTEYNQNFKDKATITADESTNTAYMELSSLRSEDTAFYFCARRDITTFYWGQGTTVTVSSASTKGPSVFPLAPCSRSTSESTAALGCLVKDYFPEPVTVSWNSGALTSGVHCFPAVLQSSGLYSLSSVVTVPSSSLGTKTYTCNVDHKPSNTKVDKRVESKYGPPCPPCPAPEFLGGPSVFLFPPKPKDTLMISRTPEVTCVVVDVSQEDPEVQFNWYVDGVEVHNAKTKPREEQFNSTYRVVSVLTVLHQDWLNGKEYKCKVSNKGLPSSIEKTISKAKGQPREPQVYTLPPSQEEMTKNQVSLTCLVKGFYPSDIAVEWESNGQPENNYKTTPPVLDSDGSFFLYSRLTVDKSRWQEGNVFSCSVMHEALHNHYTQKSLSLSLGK
light: B1 light
notes: Position is EU numbering
B13: hLL2-T155C-IgG4p (antibody, name in EU numbering)
heavy: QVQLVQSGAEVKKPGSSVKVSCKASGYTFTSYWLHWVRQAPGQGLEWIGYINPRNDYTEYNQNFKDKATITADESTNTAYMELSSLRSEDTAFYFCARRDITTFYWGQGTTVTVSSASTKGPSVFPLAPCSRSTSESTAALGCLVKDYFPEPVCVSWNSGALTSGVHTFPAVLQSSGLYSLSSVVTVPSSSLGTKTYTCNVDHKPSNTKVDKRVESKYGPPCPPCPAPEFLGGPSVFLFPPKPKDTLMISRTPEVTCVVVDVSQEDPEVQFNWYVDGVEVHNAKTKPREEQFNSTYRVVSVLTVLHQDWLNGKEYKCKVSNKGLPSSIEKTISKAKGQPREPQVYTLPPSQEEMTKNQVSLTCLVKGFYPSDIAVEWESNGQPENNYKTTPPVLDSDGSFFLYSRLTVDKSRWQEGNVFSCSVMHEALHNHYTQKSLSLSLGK
light: B1 light
notes: Position is EU numbering
B14: hLL2-S442C-IgG4p (antibody, name in EU numbering)
heavy: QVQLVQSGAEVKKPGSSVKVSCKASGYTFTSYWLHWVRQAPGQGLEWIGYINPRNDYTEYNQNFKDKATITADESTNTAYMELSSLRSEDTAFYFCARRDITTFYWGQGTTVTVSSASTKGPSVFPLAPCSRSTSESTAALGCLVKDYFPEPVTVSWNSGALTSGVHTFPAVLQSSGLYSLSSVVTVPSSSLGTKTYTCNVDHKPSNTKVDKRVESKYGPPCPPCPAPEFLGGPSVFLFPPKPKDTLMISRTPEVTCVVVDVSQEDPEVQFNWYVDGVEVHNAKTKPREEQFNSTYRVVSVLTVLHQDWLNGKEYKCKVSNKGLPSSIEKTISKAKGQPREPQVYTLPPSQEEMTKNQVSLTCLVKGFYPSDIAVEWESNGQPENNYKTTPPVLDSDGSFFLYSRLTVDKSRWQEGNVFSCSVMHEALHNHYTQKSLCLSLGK
light: B1 light
notes: Position is EU numbering
B15: hLL2-S165C-IgG1 (antibody)
heavy: not shown
light: B1 light
notes: Position is EU numbering
B16: hLL2-S442C-IgG1 (antibody)
heavy: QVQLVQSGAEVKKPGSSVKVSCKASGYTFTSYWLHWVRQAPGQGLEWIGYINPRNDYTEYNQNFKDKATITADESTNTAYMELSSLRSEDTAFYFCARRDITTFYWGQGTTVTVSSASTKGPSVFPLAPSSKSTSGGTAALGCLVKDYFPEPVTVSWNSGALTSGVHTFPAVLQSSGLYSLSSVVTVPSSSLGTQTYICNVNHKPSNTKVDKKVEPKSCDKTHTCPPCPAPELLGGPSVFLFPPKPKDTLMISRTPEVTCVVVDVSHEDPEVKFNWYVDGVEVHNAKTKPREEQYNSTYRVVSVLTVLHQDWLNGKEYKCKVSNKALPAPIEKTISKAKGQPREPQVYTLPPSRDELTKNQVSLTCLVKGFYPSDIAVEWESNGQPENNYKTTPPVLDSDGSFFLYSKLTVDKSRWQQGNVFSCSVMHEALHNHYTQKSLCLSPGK
light: B1 light
notes: Position is EU numbering
B17: hLL2-T169C-IgG1 (antibody)
heavy: not shown
light: B1 light
notes: Position is EU numbering
B18: hLL2-S157C-IgG1 (antibody)
heavy: not shown
light: B1 light
notes: Position is EU numbering
B19: hLL2-T155C-IgG1 (antibody)
heavy: not shown
light: B1 light
notes: Position is EU numbering

For one test, the target named is T1, human CD22 (human, UniProt P20273 20-847).
T1 construct: Endogenous CD22 on human cell lines Daudi, Raji, Ramos, RL, REH and NALM-6; no signal peptide limits are stated; also called antigen CD22
The test can be described thus: flow cytometry, REH cells, Tap18Hr1 conjugate 3.3 µg/mL. The protocol:
(§1) 6×10⁴˜1×10⁵ cells were seeded per well in a v-bottomed 96-well plate and incubated with 100 μl of the unconjugated Abs or the ADCs at titrated concentrations or isotype control antibody human IgG at 10 μg/mL. After 30-60 minutes of incubation at 4° C., cells were washed once with 200 μl FACS buffer (lx PBS containing 1% FBS), stained with 100 μl of 1 μg/ml goat F(ab′)2-anti-human IgG (H+L)-RPE (Southern Biotech, Cat. No. 2043-09) in FACS buffer and then incubated at 4° C. for 30˜60 min Cells were washed once with FACS buffer and analyzed by flow cytometer (BD LSR, BD Life Sciences).
(§2) In general, the site-specific conjugated hLL2-IgG4p ADCs retained antigen reactivity of antibody.
For orientation: In flow cytometry, cells or beads pass a laser one at a time.
For the molecule B1, the MFI is 104.

B2 came in with an MFI of 52.

Regarding B3, the MFI was determined as 60.

B4 came in with an MFI of 66.

The target in a further test is T1, human CD22. Briefly: flow cytometry, Daudi cells, Tap18Hr1 conjugate 3.3 µg/mL. The protocol:
as §1
(§3) The binding ability of hLL2-Cys variants with or without drug conjugation was evaluated in Daudi and REH cancer cells.
Consider B1, for which the MFI turned out to be 1400.

As to B5, the MFI worked out at 914.

The molecule B6 had an MFI of 1230.

B7 showed an MFI of 1230.

In turn, B8 returned an MFI of 1370.

Take B9: the MFI was 1230.

A further test addresses T1, human CD22. The test can be described thus: flow cytometry, Daudi cells, unconjugated Ab 3.3 µg/mL. The protocol:
as §1, §2
B10: the MFI was determined as 1390.

B11 returned an MFI of 792.

On to B12, for which the MFI came out at 761.

Molecule B13 came in with an MFI of 601.

Regarding B14, the MFI is 681.

In a further test the target is T1, human CD22. Briefly: cell-based or functional assay.
For B5, the “% inhibition, WST-1 cytotoxicity, Daudi cells, 1.1 µg/mL” value (“% inhibition … Daudi cells, 1.1 µg/mL” below) came to 77.6%; the “% inhibition, WST-1 cytotoxicity, Daudi cells, 3.3 µg/mL” value (shortened to “% inhibition … Daudi cells, 3.3 µg/mL”) was 79%; the “% inhibition, WST-1 cytotoxicity, Ramos cells, 1.1 µg/mL” value (“% inhibition … Ramos cells, 1.1 µg/mL” for short) came to 92%; the “% inhibition, WST-1 cytotoxicity, Ramos cells, 3.3 µg/mL” value (“% inhibition … Ramos cells, 3.3 µg/mL” below) was found to be 96%.

With B6, the “% inhibition … Daudi cells, 1.1 µg/mL” value was 76.3%; the “% inhibition … Daudi cells, 3.3 µg/mL” value was 79.4%; the “% inhibition … Ramos cells, 1.1 µg/mL” value was determined as 90.4%; the “% inhibition … Ramos cells, 3.3 µg/mL” value was 93.9%.

For B7, the “% inhibition … Daudi cells, 1.1 µg/mL” value was determined as 60.5%; the “% inhibition … Daudi cells, 3.3 µg/mL” value came to 65.1%; the “% inhibition … Ramos cells, 1.1 µg/mL” value came to 72.6%; the “% inhibition … Ramos cells, 3.3 µg/mL” value stood at 79.4%.

Take B8: the “% inhibition … Daudi cells, 1.1 µg/mL” value amounted to 69.8%; the “% inhibition … Daudi cells, 3.3 µg/mL” value worked out at 73.6%; the “% inhibition … Ramos cells, 1.1 µg/mL” value turned out to be 85.7%; the “% inhibition … Ramos cells, 3.3 µg/mL” value is 91.4%.

As for B9, the “% inhibition … Daudi cells, 1.1 µg/mL” value came out at 71%; the “% inhibition … Daudi cells, 3.3 µg/mL” value was found to be 72.6%; the “% inhibition … Ramos cells, 1.1 µg/mL” value is 84.9%; the “% inhibition … Ramos cells, 3.3 µg/mL” value was determined as 88.9%.

The target of a further test is T1, human CD22. The test can be described thus: flow cytometry, Daudi cells, unconjugated Ab 3.3 µg/mL. This is another data set of the same source. The protocol: as §1, §3
Turning to B10, the MFI is 1440.

B15 came in with an MFI of 1310.

As to B16, the MFI is 1150.

B17: the MFI was found to be 1300.

As to B18, the MFI was determined as 1300.

Consider B19, for which the MFI worked out at 1250.

The next test has as its target T1, human CD22. Briefly: flow cytometry, REH cells, unconjugated Ab 3.3 µg/mL. The protocol:
as §1, §2
Take B10: the MFI was 139.

With B11, the MFI was 81.

The molecule B12 returned an MFI of 74.

As to B13, the MFI turned out to be 79.

The molecule B14 registered an MFI of 70.

For a further test, the target named is T1, human CD22. Briefly: flow cytometry, REH cells, Tap18Hr1 conjugate 3.3 µg/mL. This is another data set of the same source. On the procedure: as §1, §3
The molecule B1 displayed an MFI of 104.

In turn, B5 had an MFI of 87.

The molecule B6 gave an MFI of 94.

A further test has as its target T1, human CD22. Briefly: cell-based or functional assay. The source holds these as a separate data set.
For the molecule B2, the “% inhibition … Daudi cells, 1.1 µg/mL” value is 65.8%; the “% inhibition … Daudi cells, 3.3 µg/mL” value stood at 70.6%; the “% inhibition, WST-1 cytotoxicity, NALM-6 cells, 10 ug/ml” value (shortened to “% inhibition … NALM-6 cells, 10 ug/ml”) turned out to be 28.5%; the “% inhibition, WST-1 cytotoxicity, REH cells, 10 ug/ml” value (“% inhibition … REH cells, 10 ug/ml” for short) came out at 21.3%. Also, the “% inhibition … Ramos cells, 1.1 µg/mL” value is 86.9% and the “% inhibition … Ramos cells, 3.3 µg/mL” value turned out to be 88.9%.

As for B3, the “% inhibition … Daudi cells, 1.1 µg/mL” value was 67.2%; the “% inhibition … Daudi cells, 3.3 µg/mL” value is 70.8%; the “% inhibition … NALM-6 cells, 10 ug/ml” value was 68.2%; the “% inhibition … REH cells, 10 ug/ml” value turned out to be 42.6%. In addition, the “% inhibition … Ramos cells, 1.1 µg/mL” value was 89.6% and the “% inhibition … Ramos cells, 3.3 µg/mL” value was found to be 93.3%.

With B4, the “% inhibition … Daudi cells, 1.1 µg/mL” value worked out at 66.2%; the “% inhibition … Daudi cells, 3.3 µg/mL” value turned out to be 70.2%; the “% inhibition … NALM-6 cells, 10 ug/ml” value came out at 45.3%; the “% inhibition … REH cells, 10 ug/ml” value amounted to 22.4%. The “% inhibition … Ramos cells, 1.1 µg/mL” value stood at 89.4% and the “% inhibition … Ramos cells, 3.3 µg/mL” value stood at 94.9%.

The next test deals with T1, human CD22. The test can be described thus: flow cytometry, Daudi cells, Tap18Hr1 conjugate 3.3 µg/mL. This is another data set of the same source. The protocol:
as §1, §2
Take B1: the MFI was 1400.

In the case of B2, the MFI was 481.

Regarding B3, the MFI is 625.

For the molecule B4, the MFI worked out at 515.

(Values after patent publication US20160015831A1 (BIOALLIANCE C V, published 2016).)
